A short description of this series: Near-infrared imaging of DIII-EphB4-EBD after conjugation with dye. The following applies: after conjugation with near-infrared fluorescent dye, different concentrations, compared with Dye@DIII. Format: physicochemical. The text has this: After induction, the supernatant of the BMMY induced expression culture was collected and sequentially filtered through 0.8 µm, 0.45 µm, and 0.22 µm membranes. The filtrate was then purified using an Albupure affinity column. The purified product was subjected to SDS-PAGE and near-infrared imaging for identification. As shown in Fig. 19 (left), the final eluate contained a highly purified product (indicated by the red dashed box).

B1: DIII-EphB4-EBD: fusion protein of albumin DIII and EphB4 ephrin-binding domain (SEQ ID NO: 14), tested after conjugation with near-infrared fluorescent dye (conjugate)
chain: VEEPQNLIKQNCELFEQLGEYKFQNALLVRYTKKVPQVSTPTLVEVSRNLGKVGSKCCKHPEAKRMPCAEDYLSVVLNQLCVLHEKTPVSDRVTKCCTESLVNRRPCFSALEVDETYVPKEFNAETFTFHADICTLSEKERQIKKQTALVELVKHKPKATKEQLKAVMDDFFVEKCCKADDKETCFAEEGKKLVSQLGLGGGGSGGGGSEETLLNTKLETADLKWVTFPQVDGQWEELSGLDEEQHSVRTYEVCDVQRAPGQAHWLRTGWVPRRGAVHVYATLRFTMLECLSLPRAGRSCKETFTVFYYESDADTATALTPAWMENPYIKVDTVAAEHLTRKRPGAEATGKVNVKTLRLGPLSKAGFYLAFQDQGACMALLSLHLFYKKCAQLTV
modifications: near-infrared fluorescent dye conjugated
Take B1: the fluorescence characteristics result is “fluorescence characteristics consistent with those of the original DIII”.

For the origin of these results see patent EP4803885A1, “PROBE AND USE THEREOF IN IMAGING AND THERAPY” (priority 2023, dated 2025).
